In the supplement of paper PMC9170038:

Test system: MS2 coat protein
Assay: apparent KD of MS2 coat protein; designed switch direction (-1 OFF switch, 1 ON switch): -1; higher = weaker reporter binding
How it was run: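 An oligonucleotide input, 200 uM small-molecule ligand, or no input was present during titration of SNAP-549-labelled MS2 coat protein, which was doubled from 0.7 or 1.5 nM to 3 µM. Designed RNA switches had been transcribed on Illumina chips by stalled E. coli RNA polymerase. Apparent KD per design is the median over clusters of curves fitted to normalised cluster fluorescence.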

[1] = input ligand: microRNA oligo, concentration not stated
[2] = Eterna round: R95, input ligand: FMN 200 uM
[3] = Eterna round: R95, input ligand: microRNA oligo, concentration not stated
[4] = Eterna round: R95, input ligand: none

| Sequence | apparent KD of MS2 coat protein (input ligand: FMN 200 uM) | apparent KD of MS2 coat protein [1] | apparent KD of MS2 coat protein (input ligand: none) | apparent KD of MS2 coat protein [2] | apparent KD of MS2 coat protein [3] | apparent KD of MS2 coat protein [4] |
| --- | --- | --- | --- | --- | --- | --- |
| AGAUGCUUAAGUCGACAUGAGGAUCACCCAUGUACAGUUAACGAGGAUAUCCGAAAUAAAUAAUAGGAGAAGGCGUGAUCAUGA [Ex NG3 #1] (Eterna round: R96, puzzle: Exclusion NG 3) | 82.4 nM | 145 nM | 307 nM |  |  |  |
| AACUAUGAAGGAUAUACAUGAGGAUCACCCAUGUUGAACUUGGCAUGUGCUCACAGAUGUAGAAGGUCAACCGU [Eternabot (Original) Solution 22] (Eterna round: R97, puzzle: Exclusion 3) | 128 nM |  | 43 nM |  |  |  |
| GAGGGACAUGAGGAUCACCCAUGUGAGGAUAUGUGAGAAGGAUUGGAGAGAAUAAGAAACAGAAGGCGCGGGAG [JR_Exclu1_Sub087] (puzzle: Exclusion 1) |  |  |  | 48.9 nM | 52.5 nM | 116 nM |
| CCAUAUAACUGAGGAUAUCAUCGCAACUGACGUUGAGAAGGCAGACAUGAGGAUCACCCAUGUGAUUUCUCAAUAUUAUACAUC [Prohibition 80 - Jieux - Exclusion NG 1] (Eterna round: R96, puzzle: Exclusion NG 1) | 245 nM | 31.2 nM | 61.1 nM |  |  |  |
| ACAUGUGUUGUAGGAUAUAGGAUACAUGAGGAUCACCCAUGUGGAUUCAUGUCUAUGGAAACGUCCUAGAAGGACGACAACAUG [Ex NG2 #21] (Eterna round: R96, puzzle: Exclusion NG 2) | 120 nM | 56 nM | 90.5 nM |  |  |  |
| UUGCGGAGAGGAUAUACAUAGGCGGAUUGGUAGACUCAAAUACAUGAGGAUCACCCAUGUAGAAGGCUUGAUCA [Eternabot (L2) Solution 22] (Eterna round: R97, puzzle: Exclusion 2) | 144 nM |  | 50.4 nM |  |  |  |
| UCCUCACAUGAGGAUCACCCAUGUCAGGAUAUAAGAAACGCGGAAGGCAGCCGCAAAAUUAGAAGGGACAUUAA [EX1 A.25] (Eterna round: R97, puzzle: Exclusion 1) | 39.7 nM |  | 20.6 nM |  |  |  |
| AACAUGUCAGGAUAUGUGACAUGGCUCUUCGGAGCAAGAUCACAGAAGGGACAUGAGGAUCACCCAUGUCGAUC [Ex4-3: 28] (puzzle: Exclusion 4) |  |  |  |  | 32.7 nM |  |
| GGUCCACAUGAGGAUCACCCAUGUGAGGAUAUGCAGCGGGAGCCGCCGCCGAACCGAUGUAGAAGGCACACCUG [Eternabot (Original) Solution 19] (Eterna round: R97, puzzle: Exclusion 1) | 19 nM |  | 20.4 nM |  |  |  |
| GGAUCACAUGUCAGGAUAUCCGGGCAGAGUGGCCAGGAGAAGGGACAUGAGGAUCACCCAUGUUGCUUAAAAUU [Bierorerqu] (puzzle: Brourd's mod of Exclusion 4) |  |  |  | 34.8 nM | 69.9 nM | 157 nM |
| ACAUGAGGAUCACCCAUGUCCGGCUGGUCCGUCUCGGCUGUCGAGGAUAUAGCUUGGUGUCCGCGCUAGAAGGUGGGAGCUGGU [Aenatbe mod 69] (Eterna round: R96, puzzle: Exclusion NG 3) | 99.7 nM | 53.1 nM | 96.6 nM |  |  |  |
| AUGCGUGGCUAGGAUAUUGAGGAAUUUAGCCAGCGAGAAGGAGCCACAUGAGGAUCACCCAUGUGGUGAACCUC [jl-ex6-4.60 ViennaUCT mod] (Eterna round: R97, puzzle: Exclusion 6) | 17.7 nM |  | 18.5 nM |  |  |  |
| UAAUAUCUGUAGGAUAUCAGUGGAAAACACGUAUGAGAAGGGCAGACAUGAGGAUCACCCAUGUAUAGGGUCCG [BotMod 7 - Jieux - Exclusion 6] (Eterna round: R97, puzzle: Exclusion 6) | 61.9 nM |  | 20.9 nM |  |  |  |
| GGUUUGUAAGGAUAUCCGAGAGGUAGGUGAGGGUUAGGGAAGGAGAAGGUACAUGAGGAUCACCCAUGUAAGGG [AK-MS2ROC-r4-exclusion4-10] (Eterna round: R97, puzzle: Exclusion 4) | 127 nM |  | 102 nM |  |  |  |
| UUUUAACAUGAGGAUCACCCAUGUGAGGAUAUCGAAAUUUAUAUUUAUAUUAAUUUUUCGAGAAGGCACAUUUU [JMF 89] (puzzle: Exclusion 1) |  |  |  |  | 177 nM |  |
| UAGCCAUCGUGAGAUGGCUUUCAUACAUGAGGAUCACCCAUGUAGGAUAUCGAUUGCUUUGCAGUCGAGAAGGGCAUGUAUAAU [JL ENG3 3.95] (Eterna round: R96, puzzle: Exclusion NG 3) | 34.8 nM | 22.8 nM | 29.1 nM |  |  |  |
| CAGUACUGAGGAUAUACAUGAGGAUCACCCAUGUGUUCCAGCUAGGAAACUAGCGAAUGUAGAAGGCAGUACUG [jl-ex3-4.22 salish99 mod] (Eterna round: R97, puzzle: Exclusion 3) | 451 nM |  | 355 nM |  |  |  |

| Sequence | apparent KD of MS2 coat protein (input ligand: FMN 200 uM) | apparent KD of MS2 coat protein [1] | apparent KD of MS2 coat protein (input ligand: none) | apparent KD of MS2 coat protein [2] | apparent KD of MS2 coat protein [3] | apparent KD of MS2 coat protein [4] |
| --- | --- | --- | --- | --- | --- | --- |
| AACCCGUGUGUCAGGAUAUUGAGUCAGACUGGCUACAAGAAGGGACAUGAGGAUCACCCAUGUACUUAGAGAAA [BmEX4 B.22] (Eterna round: R97, puzzle: Brourd's mod of Exclusion 4) | 37.8 nM |  | 17.9 nM |  |  |  |
| AACCUGAGGCUUUGCUUUAGGUUUACAUGAGGAUCACCCAUGUAGGAUAUGGUAGGCUUUGCUUACCAGAAGGACAUGUUAAUU [Mat - Exclusion NG 3 - Mod of JL - D26] (Eterna round: R96, puzzle: Exclusion NG 3) | 241 nM | 25 nM | 44.2 nM |  |  |  |
| AAGUACCGUCACGAUAGUGAUGGUACAACAUGUAGUGAAACAUGAGGAUCACCCAUGUCCUCAAUUGCUCGUCUUAU [Sensor 3 - 83] (puzzle: Sensor v3, turn-off variant 2) |  |  |  | 1400 nM | 460 nM | 1260 nM |
| AGUCCGUCAGGAUAUGCAAUUGUGGACAUGAGGAUCACCCAUGUAACGUGGGCUUGGUUUGUAGAAGGGACGUGCA [EX5 #91] (Eterna round: R97, puzzle: Exclusion 5) | 351 nM |  | 442 nM |  |  |  |
| GUUAGUAUCUAGGAUAUCUAGUACAUAGUAUCUAGAGAAGGAGAUACAUGAGGAUCACCCAUGUUCUGUGAUCU [Exclusion 6 - 2:c] (puzzle: Exclusion 6) |  |  |  | 53 nM | 205 nM | 234 nM |
| UGAAGGCGAGGAUAUACUGUAUGGGACAUGAGGAUCACCCAUGUUCUGUGUGUACCCGUCGUAGAAGGCGCGAAGA [EX5 C.9] (Eterna round: R97, puzzle: Exclusion 5) | 16 nM |  | 14.5 nM |  |  |  |
| GGAGUCUUAGGAUAUACAGGUGUGAACAUCCGACGUUUCCAACAUGAGGAUCACCCAUGUAGAAGGAAGACGAG [Eternabot (Original) Solution 5] (Eterna round: R97, puzzle: Exclusion 2) | 824 nM |  | 783 nM |  |  |  |
| AUGUUAUUGGAAGGAUAUAGUUUACUAUUCUAACAUGAGGAUCACCCAUGUAACCUUAUGUGUAUCUAGAAGGUCCAUAACUUA (Eterna round: R96, puzzle: Exclusion NG 2) |  | 46.4 nM |  |  |  |  |
| AUGUGCACGCUGCGAUCCUACAUGAGGAUCACCCAUGUGGUCUGGUGGCGUGGGUCACCGGACUUGGCUCGUCUUGC [salish99_S_TOV1_R5_074] (Eterna round: R97, puzzle: Sensor, turn-off variant 1) | 28.1 nM |  | 27.6 nM |  |  |  |
| UACAUGAGGAUCACCCAUGUUUUGUCGUGUAUGGUAUUUAUCUAGGAUAUCAAUUUAUUUAUGUAUGAGAAGGAGAAUAUUAAU [JMF's solution 23] (Eterna round: R96, puzzle: Exclusion NG 3) | 40.8 nM | 29.8 nM | 44.7 nM |  |  |  |
| GGACCACAUGAGGAUCACCCAUGUCAGGAUAUGACGGCGUCGGCGAAAGCGGAGGCGGUCAGAAGGGACGGUAA [AK-MS2ROC-r4-exclusion1-10] (Eterna round: R97, puzzle: Exclusion 1) | 72.3 nM |  | 32.4 nM |  |  |  |
| GCUAGAGCAGGAUAUUUAGAUCCUCACAUGAGGAUCACCCAUGUGGCCGAAAGGCUAAGAAGAGAAGGGCUCUAGC [Omei Ex5 E22] (Eterna round: R97, puzzle: Exclusion 5) | 199 nM |  | 789 nM |  |  |  |
| ACAAGCUUUUAGAUUUUCAACAUGAGGAUCACCCAUGUUCGUCUUGGGCUAGUGCGAGUGCGGUGUACUCGUAUUAG [JL TOV1 3.83 sellena mod] (Eterna round: R97, puzzle: Sensor, turn-off variant 1) | 23.2 nM |  | 23.4 nM |  |  |  |
| CUUUUGUGAGGAUAUUAGUAGUAUAUAAAUAAAAUUACUACUGAGAAGGCACAUGAGGAUCACCCAUGUUCCUC [salish99_ex4_r3_052] (puzzle: Exclusion 4) |  |  |  |  | 30.4 nM |  |
| UUUACAAGCUUUUGAUCCCACAUGAGGAUCACCCAUGUUGCUGCCGGUGACGGUAGCAUAACAAAUGCUCGUCUUAU [JL TOV1 3.55] (Eterna round: R97, puzzle: Sensor, turn-off variant 1) | 846 nM |  | 1160 nM |  |  |  |
| GCUUAGGAAGGAUAUACAUGAGGAUCACCCAUGUUGACGCGGUAGGGCCCGGUAGCACGUAGAAGGUCUAUAGC [Eternabot (L2) Solution 46] (Eterna round: R97, puzzle: Exclusion 3) | 28.5 nM |  | 19.4 nM |  |  |  |
| GAAGAGGUAGGAUAUACGAAAAAAAAGGGUAGAAAAAAAACACAUGAGGAUCACCCAUGUAGAAGGACCAAAAG [salish99_ex2_r3_034] (puzzle: Exclusion 2) |  |  |  | 102 nM | 36 nM | 23.1 nM |
